Results taken from paper PMC7749410.
One block for each substance: values may come before it.

Assays:
[1] = target: cc-del2 (cc-C99 20-99) (Saccharomyces cerevisiae | human); assay: native gel or EMSA
[2] = target: cc-del7 (cc-C99 25-99) (Saccharomyces cerevisiae | human); assay: native gel or EMSA
[3] = target: cc-del6 (cc-C99 24-99) (Saccharomyces cerevisiae | human); assay: native gel or EMSA
[4] = target: cc-del7 G29C (Saccharomyces cerevisiae | human); assay: cross-linking
[5] = target: cc-del1 (cc-C99 19-99) (Saccharomyces cerevisiae | human); assay: native gel or EMSA
[6] = target: cc-del0 (cc-C99 18-99) (Saccharomyces cerevisiae | human); assay: native gel or EMSA
[7] = target: cc-del9 (cc-C99 27-99) (Saccharomyces cerevisiae | human); assay: native gel or EMSA
[8] = target: cc-del8 (cc-C99 26-99) (Saccharomyces cerevisiae | human); assay: native gel or EMSA
[9] = target: cc-del4 (cc-C99 22-99) (Saccharomyces cerevisiae | human); assay: native gel or EMSA
[10] = target: cc-del9 G29C (Saccharomyces cerevisiae | human); assay: cross-linking
[11] = target: cc-del0 G29C (Saccharomyces cerevisiae | human); assay: cross-linking
[12] = target: cc-del6 G29C (Saccharomyces cerevisiae | human); assay: cross-linking
[13] = target: cc-del2 G29C (Saccharomyces cerevisiae | human); assay: cross-linking
[14] = target: cc-del7 G37C (Saccharomyces cerevisiae | human); assay: cross-linking
[15] = target: cc-del3 (cc-C99 21-99) (Saccharomyces cerevisiae | human); assay: native gel or EMSA
[16] = target: cc-del3 G29C (Saccharomyces cerevisiae | human); assay: cross-linking
[17] = target: cc-del4 G37C (Saccharomyces cerevisiae | human); assay: cross-linking
[18] = target: cc-del5 (cc-C99 23-99) (Saccharomyces cerevisiae | human); assay: native gel or EMSA

Substance: cc-del2 (cc-C99 20-99)
stoichiometry N [1]: 2

Substance: cc-del7 (cc-C99 25-99)
stoichiometry N [2]: 2

Substance: cc-del6 (cc-C99 24-99)
stoichiometry N [3]: 2

Substance: cc-del0 (cc-C99 18-99)
stoichiometry N [6]: 2

Substance: cc-del9 (cc-C99 27-99)
stoichiometry N [7]: 2

Substance: cc-del8 (cc-C99 26-99)
stoichiometry N [8]: 2

Substance: cc-del9 G29C
stoichiometry N [10]: 2

Substance: cc-del0 G29C
stoichiometry N [11]: 2

Substance: cc-del7 G37C
stoichiometry N [14]: 2

Substance: cc-del3 G29C
stoichiometry N [16]: 2

The remaining lines, values ahead:

stoichiometry N [4]: 2
Substance: cc-del7 G29C

stoichiometry N [5]: 2
Substance: cc-del1 (cc-C99 19-99)

stoichiometry N [9]: 2
Substance: cc-del4 (cc-C99 22-99)

stoichiometry N [12]: 2
Substance: cc-del6 G29C

stoichiometry N [13]: 2
Substance: cc-del2 G29C

stoichiometry N [15]: 2
Substance: cc-del3 (cc-C99 21-99)

stoichiometry N [17]: 2
Substance: cc-del4 G37C

stoichiometry N [18]: 2
Substance: cc-del5 (cc-C99 23-99)
